Data as given in patent publication US20250352667A1.
Each block holds one binder with its values, some of them ahead of it.

Tests used:
[1] = target: KEAP1 (wild-type full-length), His-tagged (human) (UniProt Q14145); test: AlphaScreen; 76.8 nM FLAG-NRF2, 150 nM His-KEAP1; Rep 3; control for I86V
[2] = target: KEAP1 (wild-type full-length), His-tagged (human) (UniProt Q14145); test: AlphaScreen; 153.6 nM FLAG-NRF2, 150 nM His-KEAP1; signal against NRF2 only; control for I28V
[3] = target: KEAP1 (wild-type full-length), His-tagged (human) (UniProt Q14145); test: AlphaScreen; 153.6 nM FLAG-NRF2, 150 nM His-KEAP1; Rep 2; control for I28V
[4] = target: KEAP1 (wild-type full-length), His-tagged (human) (UniProt Q14145); test: AlphaScreen; FLAG-NRF2 wt isoform 1 9.6 nM, His-KEAP1 150 nM; Rep 2; positive control for Q75R
[5] = target: KEAP1 (wild-type full-length), His-tagged (human) (UniProt Q14145); test: AlphaScreen; FLAG-NRF2 wt isoform 1 19.2 nM, His-KEAP1 150 nM; Rep 3; positive control for I86V
[6] = target: KEAP1 (wild-type full-length), His-tagged (human) (UniProt Q14145); test: AlphaScreen; 307.2 nM FLAG-NRF2, 150 nM His-KEAP1; Rep 2; control for I86V
[7] = target: KEAP1 (wild-type full-length), His-tagged (human) (UniProt Q14145); test: AlphaScreen; 2.4 nM FLAG-NRF2, 150 nM His-KEAP1; Rep 1; control for I86V
[8] = target: KEAP1 (wild-type full-length), His-tagged (human) (UniProt Q14145); test: AlphaScreen; mean over 9.6, 19.2 and 38.4 nM NRF2 wt isoform 1, KEAP1 150 nM; reference for Q75R
[9] = target: KEAP1 (wild-type full-length), His-tagged (human) (UniProt Q14145); test: AlphaScreen; 307.2 nM FLAG-NRF2, 150 nM His-KEAP1; signal against NRF2 only; control for I28V
[10] = target: KEAP1 (wild-type full-length), His-tagged (human) (UniProt Q14145); test: AlphaScreen; FLAG-NRF2 wt isoform 1 38.4 nM, His-KEAP1 150 nM; Repeat 2; positive control for Q75R
[11] = target: KEAP1 (wild-type full-length), His-tagged (human) (UniProt Q14145); test: AlphaScreen; FLAG-NRF2 wt isoform 1 9.6 nM, His-KEAP1 150 nM; Repeat 2; positive control for Q75R
[12] = target: KEAP1 (wild-type full-length), His-tagged (human) (UniProt Q14145); test: AlphaScreen; FLAG-NRF2 wt isoform 1 9.6 nM, His-KEAP1 150 nM; Rep 1; positive control for I86V
[13] = target: KEAP1 (wild-type full-length), His-tagged (human) (UniProt Q14145); test: AlphaScreen; NRF2 wt isoform 1 19.2 nM, KEAP1 150 nM; signal against NRF2-only control; control for Q75R
[14] = target: KEAP1 (wild-type full-length), His-tagged (human) (UniProt Q14145); test: AlphaScreen; 19.2 nM FLAG-NRF2, 150 nM His-KEAP1; Rep 3; control for I86V
[15] = target: KEAP1 (wild-type full-length), His-tagged (human) (UniProt Q14145); test: AlphaScreen; FLAG-NRF2 Q75R 307.2 nM, His-KEAP1 150 nM; Rep 2
[16] = target: KEAP1 (wild-type full-length), His-tagged (human) (UniProt Q14145); test: AlphaScreen; FLAG-NRF2 Q75R 1228.8 nM, His-KEAP1 150 nM; Rep 2
[17] = target: KEAP1 (wild-type full-length), His-tagged (human) (UniProt Q14145); test: AlphaScreen; FLAG-NRF2 Q75R 153.6 nM, His-KEAP1 150 nM; Rep 2
[18] = target: KEAP1 (wild-type full-length), His-tagged (human) (UniProt Q14145); test: AlphaScreen; 38.4 nM FLAG-NRF2, 150 nM His-KEAP1; Repeat 1 (same value as in Table 27)
[19] = target: KEAP1 (wild-type full-length), His-tagged (human) (UniProt Q14145); test: AlphaScreen; 19.2 nM FLAG-NRF2, 150 nM His-KEAP1; signal against NRF2 only
[20] = target: KEAP1 (wild-type full-length), His-tagged (human) (UniProt Q14145); test: AlphaScreen; 9.6 nM FLAG-NRF2, 150 nM His-KEAP1; Repeat 1 (same value as in Table 27)
[21] = target: KEAP1 (wild-type full-length), His-tagged (human) (UniProt Q14145); test: AlphaScreen; 2.4 nM FLAG-NRF2, 150 nM His-KEAP1; signal against NRF2 only
[22] = target: KEAP1 (wild-type full-length), His-tagged (human) (UniProt Q14145); test: AlphaScreen; 153.6 nM FLAG-NRF2, 150 nM His-KEAP1; Rep 1
[23] = target: KEAP1 (wild-type full-length), His-tagged (human) (UniProt Q14145); test: AlphaScreen; 19.2 nM FLAG-NRF2, 150 nM His-KEAP1; against wild-type NRF2 isoform 1 = 100%
[24] = target: KEAP1 (wild-type full-length), His-tagged (human) (UniProt Q14145); test: AlphaScreen; 38.4 nM FLAG-NRF2, 150 nM His-KEAP1; signal against NRF2 only
[25] = target: KEAP1 (wild-type full-length), His-tagged (human) (UniProt Q14145); test: AlphaScreen; FLAG-NRF2 I86V 307.2 nM, His-KEAP1 150 nM; Rep 1
[26] = target: KEAP1 (wild-type full-length), His-tagged (human) (UniProt Q14145); test: AlphaScreen; FLAG-NRF2 I86V 9.6 nM, His-KEAP1 150 nM; Rep 2
[27] = target: KEAP1 (wild-type full-length), His-tagged (human) (UniProt Q14145); test: AlphaScreen; FLAG-NRF2 I86V 614.4 nM, His-KEAP1 150 nM; Rep 2

Sequence of KEAP1 (wild-type full-length), His-tagged (human) (Q14145 2-624 limits assumed): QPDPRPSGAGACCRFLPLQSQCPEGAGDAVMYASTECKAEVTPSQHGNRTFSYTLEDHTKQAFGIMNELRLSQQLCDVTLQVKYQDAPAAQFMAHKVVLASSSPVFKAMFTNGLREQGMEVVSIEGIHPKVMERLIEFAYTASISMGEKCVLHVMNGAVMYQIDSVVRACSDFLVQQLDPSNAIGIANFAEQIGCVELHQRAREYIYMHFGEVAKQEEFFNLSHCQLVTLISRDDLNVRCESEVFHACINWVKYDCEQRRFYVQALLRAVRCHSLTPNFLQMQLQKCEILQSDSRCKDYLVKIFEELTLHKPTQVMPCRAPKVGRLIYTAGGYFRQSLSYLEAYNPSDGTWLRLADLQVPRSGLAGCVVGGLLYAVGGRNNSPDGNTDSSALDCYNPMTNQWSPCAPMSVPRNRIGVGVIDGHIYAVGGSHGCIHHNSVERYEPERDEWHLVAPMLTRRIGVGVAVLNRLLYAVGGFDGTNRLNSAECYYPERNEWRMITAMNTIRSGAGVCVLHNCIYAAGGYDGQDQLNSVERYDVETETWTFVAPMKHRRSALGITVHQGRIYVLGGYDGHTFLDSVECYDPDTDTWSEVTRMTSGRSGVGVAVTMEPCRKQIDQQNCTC

A-counts [1]: 2880 A-counts
S/N [2]: 1.9
A-counts [3]: 1880 A-counts
A-counts (NRF2 plus KEAP1) [4]: 900 A-counts
A-counts (NRF2 plus KEAP1) [5]: 3040 A-counts
A-counts [6]: 2790 A-counts
A-counts [7]: 860 A-counts
Average Binding [8]: 100%
S/N [9]: 1.3
A-counts (NRF2 plus KEAP1) [10]: 1450 A-counts
A-counts (NRF2 plus KEAP1) [11]: 900 A-counts
A-counts (NRF2 plus KEAP1) [12]: 2640 A-counts
S/N [13]: 3.4
A-counts [14]: 3040 A-counts
B1: NRF2 isoform 1 (wild-type full-length), FLAG-tagged (protein)
chain: MMDLELPPPGLPSQQDMDLIDILWRQDIDLGVSREVFDFSQRRKEYELEKQKKLEKERQEQLQKEQEKAFFAQLQLDEETGEFLPIQPAQHIQSETSGSANYSQVAHIPKSDALYFDDCMQLLAQTFPFVDDNEVSSATFQSLVPDIPGHIESPVFIATNQAQSPETSVAQVAPVDLDGMQQDIEQVWEELLSIPELQCLNIENDKLVETTMVPSPEAKLTEVDNYHFYSSIPSMEKEVGNCSPHFLNAFEDSFSSILSTEDPNQLTVNSLNSDATVNTDFGDEFYSAFIAEPSISNSMPSPATLSHSLSELLNGPIDVSDLSLCKAFNQNHPESTAEFNDSDSGISLNTSPSVASPEHSVESSSYGDTLLGLSDSEVEELDSAPGSVKQNGPKTPVHSSGDMVQPLSPSQGQSTHVHDAQCENTPEKELPVSPGHRKTPFTKDKHSSRLEAHLTRDELRAKALHIPFPVEKIINLPVVDFNEMMSKEQFNEAQLALIRDIRRRGKNKVAAQNCRKRKLENIVELEQDLDHLKDEKEKLLKEKGENDKSLHLLKKQLSTLYLEVFSMLRDEDGKPYSPSEYSLQQTRDGNVFLVPKSKKPDVKKN

A-counts (NRF2 plus KEAP1) [15]: 1020 A-counts
A-counts (NRF2 plus KEAP1) [16]: 653 A-counts
A-counts (NRF2 plus KEAP1) [17]: 991 A-counts
B2: NRF2 isoform 1 (Q75R full-length), FLAG-tagged (protein)
chain: MMDLELPPPGLPSQQDMDLIDILWRQDIDLGVSREVFDFSQRRKEYELEKQKKLEKERQEQLQKEQEKAFFAQLRLDEETGEFLPIQPAQHIQSETSGSANYSQVAHIPKSDALYFDDCMQLLAQTFPFVDDNEVSSATFQSLVPDIPGHIESPVFIATNQAQSPETSVAQVAPVDLDGMQQDIEQVWEELLSIPELQCLNIENDKLVETTMVPSPEAKLTEVDNYHFYSSIPSMEKEVGNCSPHFLNAFEDSFSSILSTEDPNQLTVNSLNSDATVNTDFGDEFYSAFIAEPSISNSMPSPATLSHSLSELLNGPIDVSDLSLCKAFNQNHPESTAEFNDSDSGISLNTSPSVASPEHSVESSSYGDTLLGLSDSEVEELDSAPGSVKQNGPKTPVHSSGDMVQPLSPSQGQSTHVHDAQCENTPEKELPVSPGHRKTPFTKDKHSSRLEAHLTRDELRAKALHIPFPVEKIINLPVVDFNEMMSKEQFNEAQLALIRDIRRRGKNKVAAQNCRKRKLENIVELEQDLDHLKDEKEKLLKEKGENDKSLHLLKKQLSTLYLEVFSMLRDEDGKPYSPSEYSLQQTRDGNVFLVPKSKKPDVKKN

A-counts [18]: 1690 A-counts
S/N [19]: 3.2
A-counts [20]: 1570 A-counts
S/N [21]: 2.2
A-counts [22]: 1400 A-counts
Binding Percentage (%) [23]: 68.3%
S/N [24]: 2.7
B3: NRF2 isoform 1 (I28V full-length), FLAG-tagged (protein)
chain: MMDLELPPPGLPSQQDMDLIDILWRQDVDLGVSREVFDFSQRRKEYELEKQKKLEKERQEQLQKEQEKAFFAQLQLDEETGEFLPIQPAQHIQSETSGSANYSQVAHIPKSDALYFDDCMQLLAQTFPFVDDNEVSSATFQSLVPDIPGHIESPVFIATNQAQSPETSVAQVAPVDLDGMQQDIEQVWEELLSIPELQCLNIENDKLVETTMVPSPEAKLTEVDNYHFYSSIPSMEKEVGNCSPHFLNAFEDSFSSILSTEDPNQLTVNSLNSDATVNTDFGDEFYSAFIAEPSISNSMPSPATLSHSLSELLNGPIDVSDLSLCKAFNQNHPESTAEFNDSDSGISLNTSPSVASPEHSVESSSYGDTLLGLSDSEVEELDSAPGSVKQNGPKTPVHSSGDMVQPLSPSQGQSTHVHDAQCENTPEKELPVSPGHRKTPFTKDKHSSRLEAHLTRDELRAKALHIPFPVEKIINLPVVDFNEMMSKEQFNEAQLALIRDIRRRGKNKVAAQNCRKRKLENIVELEQDLDHLKDEKEKLLKEKGENDKSLHLLKKQLSTLYLEVFSMLRDEDGKPYSPSEYSLQQTRDGNVFLVPKSKKPDVKKN

A-counts (NRF2 plus KEAP1) [25]: 2210 A-counts
A-counts (NRF2 plus KEAP1) [26]: 2610 A-counts
A-counts (NRF2 plus KEAP1) [27]: 1970 A-counts
B4: NRF2 isoform 1 (I86V full-length), FLAG-tagged (protein)
chain: MMDLELPPPGLPSQQDMDLIDILWRQDIDLGVSREVFDFSQRRKEYELEKQKKLEKERQEQLQKEQEKAFFAQLQLDEETGEFLPVQPAQHIQSETSGSANYSQVAHIPKSDALYFDDCMQLLAQTFPFVDDNEVSSATFQSLVPDIPGHIESPVFIATNQAQSPETSVAQVAPVDLDGMQQDIEQVWEELLSIPELQCLNIENDKLVETTMVPSPEAKLTEVDNYHFYSSIPSMEKEVGNCSPHFLNAFEDSFSSILSTEDPNQLTVNSLNSDATVNTDFGDEFYSAFIAEPSISNSMPSPATLSHSLSELLNGPIDVSDLSLCKAFNQNHPESTAEFNDSDSGISLNTSPSVASPEHSVESSSYGDTLLGLSDSEVEELDSAPGSVKQNGPKTPVHSSGDMVQPLSPSQGQSTHVHDAQCENTPEKELPVSPGHRKTPFTKDKHSSRLEAHLTRDELRAKALHIPFPVEKIINLPVVDFNEMMSKEQFNEAQLALIRDIRRRGKNKVAAQNCRKRKLENIVELEQDLDHLKDEKEKLLKEKGENDKSLHLLKKQLSTLYLEVFSMLRDEDGKPYSPSEYSLQQTRDGNVFLVPKSKKPDVKKN
